We go through three molecules from US20150018228A1, “ENZYME DETECTION BY MICROFLUIDICS” (priority 2011, published 2015).

What all share (format): biochemical, Plasmodium falciparum
The test system of data set [1] is pfTopI. Description: Cleavage-ligation assay with radio-labeled DNA substrates in absence or presence of camptothecin. The conditions noted are these: 60 μM CPT, duplex OL62/OL63, 20 min at 37° C. As to the method:
Detection of PfTopI activity using radio-labeled DNA substrates: DNA cleavage reactions were carried out by incubating 20 nM duplex OL37/OL56 or OL62/OL63 with 500 fmol of pfTopI or hTopI in the absence or presence of 60 μM CPT for 20 min at 37° C. in 10 mM Tris (pH 7.5), 5 mM MgCl2, and 5 mM CaCl2 in a final volume of 20 μl. After the 20 min incubation, reactions were stopped with 0.5% (w/v) SDS. Samples were subjected to ethanol precipitation, resuspended in 10 μl of 1 mg/ml trypsin and incubated at 37° C. for 30 min. Reaction products were analyzed by denaturing polyacrylamide gel electrophoresis following standard procedures, and radioactive bands were visualized by PhosphorImaging.

Data set [2] concerns pfTopI. Description: REEAD with HRP-mediated colorimetric readout, purified pfTopI. The conditions noted are these: purified pfTopI circularizing S1. From the text:
To investigate if the Plasmodium-specific REEAD could be adapted to simple colorimetric readout, suitable for low-resource settings without compromising sensitivity, an additional enzymatic step was introduced to the assay by coupling streptavidin-fused HRP to biotinylated RCPs as described by Yan, J. et al. An on-nanoparticle rolling-circle amplification platform for ultrasensitive protein detection in biological fluids. Small 6, 2520-2525 (2010). HRP oxidizes colorless tetramethylbenzidine to a blue-colored form, detectable to the naked eye or by spectrophotometric measurements. This, of course, is at the expense of the possibility of multiplexing since RCPs originating from different circles cannot be distinguished. […] This, however, imposed the advantage of preventing competition between S(TopI) and pfTopI(S1) for pfTopI, as discussed above. The two readout formats were compared by reacting pfTopI(S1) with increasing dilutions of extracts from blood sample #2 followed by microscopic visualization of RCPs or by spectrophotometric measurement of HRP substrate conversion. As evident from FIG. 23 colorimetric readout increased sensitivity of REEAD by a factor two compared to microscopic readout. […]

Data set [3] has as its system pfTopI. The data set can be described thus: REEAD in nuclear extract from HEK293T cells with or without spike-in pfTopI. The conditions noted are these: signals only with spike-in pfTopI. As to the method:
The use of Su2 for detecting pfTopI activity in human cell extracts in the RCA-based biosensor setup was also verified. […] As a control for successful RCA and probe annealing a circularized control circle was added to each sample before annealing to the primer coated slide. […] As expected, comparative levels of green and blue spots corresponding to RCPs from […] and control circles, respectively, could be observed in both samples (FIG. 2A).
The specificity of pfTopI(S1) for pfTopI in crude biological samples was addressed using nuclear extract from human HEK293T cells with or without spike-in pfTopI as a model for Plasmodium infection. […] Consequently, green signals observed in FIG. 22b, right panel, originated from hTopI and pfTopI activity in combination where pfTopI(S1) and S(TopI) competed for reaction by pfTopI at the expense of sensitivity.
Human embryonic kidney HEK293T cells were cultured in Dulbecco's Modified Eagle Medium (GIBCO) supplemented with 10% fetal bovine serum (FBS) (GIBCO), 100 units/mL penicillin and […] streptomycin (Invitrogen). Cells were incubated in a humidified incubator (5% CO2/95% air atmosphere at 37° C.). […]
(§1) The 5′-amine-conjugated primer was coupled to CodeLink Activated Slides (SurModics) according to the manufacturer's description. […] Quantification of pfTopI specific signals was performed as previously described^1.

The test system of data set [4] is pfTopI. Description: RCA-based biosensor (REEAD) circularization of oligonucleotide substrates by purified pfTopI. As to the method: As shown in FIG. 1A and FIG. 4, in contrast to its human counterpart, pfTopI is able to cleave close to DNA ends with high efficiency. […] To address this possibility, purified pfTopI was incubated with each of the substrates Su2-Su6 (FIG. 1B) and the products analysed using the RCA based detection system as schematically outlined in FIG. 1C. The sequence of the substrates Su4, Su5, and Su6 was modified to match the sequence that was cleaved with high efficiency in substrate XX.
Based on this, five different oligonucleotides with potential of being circularized specifically by pfTopI cleavage-ligation were designed. These oligonucleotides (PfTop1(S1-S5)) all folded into a hairpin structure containing a probe- and a primer-annealing sequence in the single-stranded loop and a potential pfTopI recognizable sequence at the end of the double-stranded stem region (FIG. 1b). […] To allow comparative quantification of signals generated in different reactions, a known concentration of control-circle with a unique probe-annealing sequence was added to the reaction mixtures before RCA and resulting RCPs visualized using a green-fluorescent probe. […]
as §1

For `CC[C@@]1(O)C(=O)OCc2c1cc1n(c2=O)Cc2cc3ccccc3nc2-1` [camptothecin], the “effect on ligation product formation by pfTopI” value in data set [1] is “ligation product is only observed upon incubation of the substrate with pfTopI in the absence of camptothecin”.

B1: pfTopI(S1): hairpin oligonucleotide sensor circularized by pfTopI, SEQ ID NO: 8 (nucleic acid)
chain: TCTAGAAAGTATAGGAACTTCGAACGACTCAGAATGACTGTGAAGATCGCTTATCCTCAATGCACATGTTTGGCTCCCATTCTGAGTCGTTCGAAGTTCCTATACTTT
modifications: chemistry not fully specified
As for B1, the “detection of pfTopI, spectrophotometric measurement of HRP reaction” value in data set [2] (FIG. 27) stood at 2 aM. For the same molecule, in data set [2] (data not shown), the “detection of pfTopI, direct visual detection of HRP reaction” value worked out at 200 aM. The “specificity for pfTopI in crude human cell extract” value in data set [3] is given as “specificity of pfTopI(S1) for pfTopI even on a background of human nucleus content”. In data set [4] (purified pfTopI, compared among the tested substrates), the “circularization efficiency by pfTopI, substrate signals relative to control circle signals” value is given as “the most efficient sensor of pfTopI”.

B2: S(TopI): self-folding oligonucleotide substrate for human topoisomerase I, SEQ ID NO: 25 (nucleic acid)
chain: AGAAAAATTTTTAAAAAAACTGTGAAGATCGCTTATTTTTTTAAAAATTTTTCTAAGTCTTTTAGATCCCTCAATGCTGCTGCTGTACTACGATCTAAAAGACTTAGA
modifications: listed as DNA, chemistry not fully specified
For B2, the “circularization (conversion to closed circles) by pfTopI” value in data set [4] (purified recombinant pfTopI, RCA and fluorescent probe readout) is recorded as “circularizes S(TopI)”.
